± gives the standard deviation of the averaged measurements.
B1: library; a variant is named by its letters at N, in order (parent)
chain: GCUGUCACCGGUGUAUUACCCUAGUGGUCGACCGGUCUGAUGAGUCUNNNNNNAGACGAAACAGC

Assays:
[1] = variants of: B1; assay: normalized RNA/DNA level with ligand (relative to sTRSVctl = 100) (log10 (% of sTRSVctl)); ligand: hypoxanthine (xanthine aptamer); higher = less ribozyme self-cleavage, higher mRNA level; conditions: ligand concentration (+) RNA-Seq: 5 mM, HEK293T, reporter: mCherry (pCS4076), ligand present: yes
Procedure, shortened: (§1)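 Ribozyme switch library plasmids with mCherry reporters (eGFP in certain ligand experiments) went into HEK293T cells at 4 µg per 6-well well. Where ligand was used, it was applied 1 h before transfection, and total RNA was extracted with EDTA 72 h later for reverse transcription, amplification, barcoding and sequencing. RNA level is the RNA-to-DNA read ratio normalized to a spiked-in non-cleaving sequence or to the leading sequences, then scaled and log-transformed. Scaling was ×100 with log10, the leading set comprised 25 sequences, and the cutoff was ≥100 DNA reads.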

[2] = variants of: B1; assay: normalized RNA/DNA level without ligand (relative to sTRSVctl = 100) (log10 (% of sTRSVctl)); ligand: hypoxanthine (xanthine aptamer); higher = less ribozyme self-cleavage, higher mRNA level; conditions: HEK293T, reporter: mCherry (pCS4076), ligand present: no
Procedure, shortened: as §1

Row | Variant | normalized RNA/DNA level with ligand (log10) [1] | normalized RNA/DNA level without ligand (log10) [2]
1 | UUGAAC | 1.92 ± 0.052 | 1.855 ± 0.01
2 | UUGAAU | 1.95 ± 0.03 | 1.8 ± 0.031
3 | GUGAAA | 1.895 ± 0.016 | 1.66 ± 0.027
4 | GUGAAC | 1.9 ± 0.024 | 1.57 ± 0.046
5 | GUGAAU | 1.9 ± 0.024 | 1.7 ± 0.052
6 | UUGGUC | 1.97 ± 0.034 | 2.006 ± 0.0099
7 | UUGGUU | 1.99 ± 0.037 | 1.91 ± 0.025
8 | UUGGUG | 2.008 ± 0.0026 | 1.81 ± 0.054
9 | UUGGUA | 1.937 ± 0.0068 | 1.885 ± 0.0069
10 | AUCUUA | 1.916 ± 0.012 | 1.827 ± 0.011
11 | AUCUUC | 2.02 ± 0.031 | 2.006 ± 0.0047
12 | AUCUUU | 1.99 ± 0.024 | 1.91 ± 0.046
13 | CUGUAG | 1.88 ± 0.024 | 1.65 ± 0.032
14 | CUGUAC | 1.93 ± 0.033 | 1.75 ± 0.093
15 | CUGUAA | 1.917 ± 0.017 | 1.713 ± 0.006
16 | CUCUGG | 1.937 ± 0.0091 | 1.75 ± 0.084
17 | CUCUGU | 1.963 ± 0.0084 | 1.94 ± 0.028
18 | CUCUGA | 1.96 ± 0.047 | 1.944 ± 0.009
19 | GUUAUC | 1.96 ± 0.049 | 1.86 ± 0.037
20 | GUUAUA | 1.881 ± 0.0041 | 1.83 ± 0.025
21 | GUCUGU | 1.948 ± 0.018 | 1.841 ± 0.015
22 | GUCUGC | 1.92 ± 0.038 | 1.707 ± 0.0074
23 | GUCUGA | 1.954 ± 0.0094 | 1.79 ± 0.03

Row | Variant | normalized RNA/DNA level with ligand (log10) [1] | normalized RNA/DNA level without ligand (log10) [2]
24 | GUCUGG | 1.878 ± 0.016 | 1.48 ± 0.0028
25 | UUUAGA | 1.93 ± 0.054 | 1.75 ± 0.035
26 | CUGCGU | 1.954 ± 0.013 | 1.93 ± 0.021
27 | CUGCGG | 1.96 ± 0.1 | 1.902 ± 0.0065
28 | UUCUGU | 1.947 ± 0.0095 | 1.883 ± 0.018
29 | UUCUGC | 1.998 ± 0.019 | 1.92 ± 0.049
30 | UUCUGA | 2.03 ± 0.036 | 1.834 ± 0.0034
31 | UUGUUC | 2.012 ± 0.012 | 2.01 ± 0.032
32 | UUGUUG | 2.027 ± 0.012 | 1.9556 ± 0.0016
33 | UUGUUA | 1.983 ± 0.0091 | 2.01 ± 0.043
34 | UUGUUU | 2.039 ± 0.018 | 2.04 ± 0.042
35 | AUGUCC | 1.98 ± 0.11 | 1.884 ± 0.011
36 | AUGUCA | 1.95 ± 0.08 | 1.741 ± 0.0086
37 | AUGUCG | 1.863 ± 0.018 | 1.52 ± 0.036
38 | GUCUUG | 1.9 ± 0.086 | 1.52 ± 0.066
39 | GUCUUU | 1.946 ± 0.003 | 1.885 ± 0.0085
40 | GUCUUC | 1.99 ± 0.042 | 1.9928 ± 0.0007
41 | GUCUUA | 1.932 ± 0.0061 | 1.87 ± 0.021
42 | UUGCCU | 2.007 ± 0.018 | 1.99 ± 0.057
43 | UUGCCA | 1.95 ± 0.017 | 1.94 ± 0.028
44 | UUGCCC | 1.99 ± 0.025 | 1.997 ± 0.0042
45 | CUUACG | 1.96 ± 0.025 | 1.87 ± 0.086
46 | CUUACU | 1.96 ± 0.028 | 1.856 ± 0.0075

Row | Variant | normalized RNA/DNA level with ligand (log10) [1] | normalized RNA/DNA level without ligand (log10) [2]
47 | CUUACA | 1.932 ± 0.011 | 1.83 ± 0.062
48 | UUGAGU | 1.92 ± 0.026 | 1.75 ± 0.026
49 | UUUACU | 1.94 ± 0.024 | 1.876 ± 0.0032
50 | UUUACA | 1.97 ± 0.04 | 1.912 ± 0.011
51 | UUUACG | 1.92 ± 0.035 | 1.76 ± 0.048
52 | UUUACC | 1.957 ± 0.011 | 1.867 ± 0.014
53 | AUGCUC | 2.008 ± 0.011 | 1.976 ± 0.013
54 | AUGCUU | 1.93 ± 0.088 | 1.861 ± 0.018
55 | AUGCUG | 1.898 ± 0.0024 | 1.61 ± 0.048
56 | AUGGUU | 1.89 ± 0.034 | 1.763 ± 0.012
57 | GUGCUA | 1.93 ± 0.017 | 1.75 ± 0.093
58 | GUGCUU | 1.96 ± 0.027 | 1.89 ± 0.019
59 | GUGCUC | 1.909 ± 0.011 | 1.85 ± 0.034
60 | AUGCCU | 1.958 ± 0.0056 | 1.818 ± 0.0027
61 | AUGCCG | 1.837 ± 0.01 | 1.49 ± 0.089
62 | AUGCCC | 1.97 ± 0.062 | 1.87 ± 0.048
63 | CUGAGC | 1.947 ± 0.0077 | 1.79 ± 0.065
64 | CUGAGU | 1.94 ± 0.073 | 1.839 ± 0.0049
65 | AUGCAC | 1.91 ± 0.12 | 1.74 ± 0.034
66 | AUGCAU | 1.87 ± 0.032 | 1.76 ± 0.019
67 | AUGGGU | 1.88 ± 0.066 | 1.534 ± 0.0046
68 | AUGGGG | 1.88 ± 0.08 | 1.4 ± 0.081
69 | AUGGGC | 1.94 ± 0.064 | 1.81 ± 0.022

Row | Variant | normalized RNA/DNA level with ligand (log10) [1] | normalized RNA/DNA level without ligand (log10) [2]
70 | AUCUGC | 1.97 ± 0.04 | 1.88 ± 0.022
71 | AUCUGU | 1.91 ± 0.026 | 1.787 ± 0.014
72 | UUGAUG | 1.94 ± 0.045 | 1.8 ± 0.029
73 | UUGAUC | 1.952 ± 0.0039 | 2.02 ± 0.035
74 | UUGAUU | 1.98 ± 0.03 | 1.905 ± 0.011
75 | CUGACG | 1.89 ± 0.057 | 1.86 ± 0.074
76 | CUGACU | 1.99 ± 0.038 | 1.9 ± 0.072
77 | GUGUAC | 1.92 ± 0.045 | 1.69 ± 0.11
78 | UUGCAA | 1.92 ± 0.03 | 1.79 ± 0.048
79 | UUGCAU | 1.98 ± 0.024 | 1.862 ± 0.004
80 | UUGCAC | 1.96 ± 0.051 | 1.9 ± 0.038
81 | UUGCAG | 1.915 ± 0.017 | 1.79 ± 0.099
82 | UUGCUA | 1.95 ± 0.045 | 1.897 ± 0.0028
83 | UUGCUG | 2.009 ± 0.012 | 1.94 ± 0.028
84 | UUGCUC | 2.061 ± 0.0057 | 1.9913 ± 0.0008
85 | AUGGCC | 1.959 ± 0.015 | 1.883 ± 0.014
86 | AUGGCU | 1.89 ± 0.026 | 1.86 ± 0.031
87 | AUGGCA | 1.92 ± 0.035 | 1.787 ± 0.017
88 | AUUACU | 1.956 ± 0.0042 | 1.819 ± 0.017
89 | AUUACC | 1.926 ± 0.013 | 1.94 ± 0.038
90 | GUGGUU | 1.96 ± 0.064 | 1.875 ± 0.017
91 | GUGGUC | 1.96 ± 0.038 | 1.79 ± 0.054
92 | UUGUCC | 1.99 ± 0.03 | 2.03 ± 0.067

Row | Variant | normalized RNA/DNA level with ligand (log10) [1] | normalized RNA/DNA level without ligand (log10) [2]
93 | UUGUCU | 1.99 ± 0.03 | 2.02 ± 0.083
94 | UUGUCA | 1.99 ± 0.037 | 1.946 ± 0.01
95 | UUGUCG | 1.99 ± 0.025 | 1.947 ± 0.0075
96 | AUUAGU | 1.95 ± 0.028 | 1.712 ± 0.0075
97 | UUGCGC | 1.94 ± 0.027 | 1.91 ± 0.02
98 | UUGCGU | 1.97 ± 0.024 | 1.82 ± 0.067
99 | UUGCGA | 1.994 ± 0.015 | 1.88 ± 0.027
100 | GUGCCU | 1.98 ± 0.042 | 1.891 ± 0.0069
101 | GUGCCA | 1.93 ± 0.021 | 1.81 ± 0.035
102 | GUGCCC | 1.93 ± 0.027 | 1.82 ± 0.049
103 | AUGACC | 1.914 ± 0.019 | 1.902 ± 0.016
104 | AUGACU | 1.95 ± 0.024 | 1.829 ± 0.016
105 | UUCUUG | 1.92 ± 0.068 | 1.794 ± 0.016
106 | UUCUUU | 1.927 ± 0.013 | 1.98 ± 0.034
107 | UUCUUA | 1.95 ± 0.014 | 1.883 ± 0.018
108 | UUCUUC | 2.01 ± 0.062 | 2.06 ± 0.039
109 | CUGGUC | 1.96 ± 0.026 | 1.93 ± 0.023
110 | CUGGUA | 1.93 ± 0.022 | 1.773 ± 0.01
111 | CUGGUU | 2.01 ± 0.024 | 1.858 ± 0.0054
112 | CUGGUG | 1.94 ± 0.059 | 1.76 ± 0.022
113 | CUGGAU | 1.94 ± 0.051 | 1.75 ± 0.072
114 | CUGGAG | 1.86 ± 0.019 | 1.62 ± 0.037
115 | CUGGAA | 1.94 ± 0.033 | 1.771 ± 0.013
